Experimental findings from patent publication US20250182853A1 (TOHOKU UNIVERSITY, published 2025) are described below.

As usually defined, the EC50 is the midpoint of the concentration-response curve. Read a low EC50 as an effect from little substance.

Where a chain is given by its changes, count along the chain named.

The assay has as its target T1, Galectin-3 (UniProt P17931 1-250, limits assumed).
T1 construct: Immobilized on magnetic particles for panning and on ELISA wells via NeutrAvidin; also called Gal-3; target Galectin-3
The assay is described as follows: ELISA, eight 2-fold dilutions starting from 1.5 uM.

T1 sequence (P17931 whole entry): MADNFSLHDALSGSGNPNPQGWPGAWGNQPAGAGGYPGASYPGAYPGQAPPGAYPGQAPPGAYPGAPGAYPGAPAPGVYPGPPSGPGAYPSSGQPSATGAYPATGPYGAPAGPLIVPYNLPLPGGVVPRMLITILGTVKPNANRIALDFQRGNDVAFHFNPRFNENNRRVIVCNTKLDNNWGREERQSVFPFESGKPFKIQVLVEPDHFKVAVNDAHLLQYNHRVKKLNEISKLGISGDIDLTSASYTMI

B1: 1E2 mutant (2u2f mutant from Cluster 1) (designed binder)
chain: AHKLFIGGLPVDYNDDQVKELLTSFGPLKAFNLVKDSATGLSKGYAFAEYVDINVTDQAIAGLNGNVCHLHTLLVQRASVGAKNADYKDDDDKLEHHHHHH
notes: Purified monomer from a pET22b vector in E. coli (IMAC, SEC); The tag is not described
In turn, B1 showed an EC50 of 92.5 nM.

B2: 4H5 mutant (2u2f mutant from Cluster 4) (designed binder)
chain: B1 chain with V11D, D12Y, N14G, N66R, V67F, C68Y, H69G, L70T, H71A
notes: as for B1
As to B2, the EC50 amounted to 201 nM.

B3: 3B5 mutant (2u2f mutant from Cluster 3) (designed binder)
chain: B1 chain with V11A, Y13G, N14D, N66F, V67A, C68T, H69S, L70R, H71F, T72S
notes: as for B1
Molecule B3 had an EC50 of 277 nM.

B4: 1H2 mutant (2u2f mutant from Cluster 1) (designed binder)
chain: B1 chain with N66S, V67G, C68S, H69R, L70I, H71R, T72A
notes: as for B1
Turning to B4, the EC50 came to 79.9 nM.
